Data from US20250161408A1, “PEPTIDIC INHIBITORS OF AMYLOID SELF- AND CROSS-ASSEMBLY” (TECHNISCHE UNIVERSITÄT MÜNCHEN, priority 2022, published 2025).
Non-standard residues stand in square brackets, D forms with d. NMeF = CN[C@@H](Cc1ccccc1)C(=O)O; NMeL = CN[C@@H](CC(C)C)C(=O)O; NMeV = CN[C@H](C(=O)O)C(C)C; Nle = CCCC[C@H](N)C(=O)O

B1: L3-LF (peptide)
peptide: H-QK[NMeL]V[NMeF]FAEDLLLNKGAIIGL[Nle]VGGVV-OH
SMILES: CCCC[C@H](NC(=O)[C@H](CC(C)C)NC(=O)CNC(=O)[C@@H](NC(=O)[C@@H](NC(=O)[C@H](C)NC(=O)CNC(=O)[C@H](CCCCN)NC(=O)[C@H](CC(N)=O)NC(=O)[C@H](CC(C)C)NC(=O)[C@H](CC(C)C)NC(=O)[C@H](CC(C)C)NC(=O)[C@H](CC(=O)O)NC(=O)[C@H](CCC(=O)O)NC(=O)[C@H](C)NC(=O)[C@H](Cc1ccccc1)NC(=O)[C@H](Cc1ccccc1)N(C)C(=O)[C@@H](NC(=O)[C@H](CC(C)C)N(C)C(=O)[C@H](CCCCN)NC(=O)[C@@H](N)CCC(N)=O)C(C)C)[C@@H](C)CC)[C@@H](C)CC)C(=O)N[C@H](C(=O)NCC(=O)NCC(=O)N[C@H](C(=O)N[C@H](C(=O)O)C(C)C)C(C)C)C(C)C
B2: Nle3-VF (peptide)
peptide: H-QKL[NMeV]F[NMeF]AED[Nle][Nle][Nle]NKGAIIGL[Nle]VGGVV-OH
SMILES: CCCC[C@H](NC(=O)[C@H](CC(=O)O)NC(=O)[C@H](CCC(=O)O)NC(=O)[C@H](C)NC(=O)[C@H](Cc1ccccc1)N(C)C(=O)[C@H](Cc1ccccc1)NC(=O)[C@H](C(C)C)N(C)C(=O)[C@H](CC(C)C)NC(=O)[C@H](CCCCN)NC(=O)[C@@H](N)CCC(N)=O)C(=O)N[C@@H](CCCC)C(=O)N[C@@H](CCCC)C(=O)N[C@@H](CC(N)=O)C(=O)N[C@@H](CCCCN)C(=O)NCC(=O)N[C@@H](C)C(=O)N[C@H](C(=O)N[C@H](C(=O)NCC(=O)N[C@@H](CC(C)C)C(=O)N[C@@H](CCCC)C(=O)N[C@H](C(=O)NCC(=O)NCC(=O)N[C@H](C(=O)N[C@H](C(=O)O)C(C)C)C(C)C)C(C)C)[C@@H](C)CC)[C@@H](C)CC
B3: F3-VF (peptide)
peptide: H-QKL[NMeV]F[NMeF]AEDFFFNKGAIIGL[Nle]VGGVV-OH
SMILES: CCCC[C@H](NC(=O)[C@H](CC(C)C)NC(=O)CNC(=O)[C@@H](NC(=O)[C@@H](NC(=O)[C@H](C)NC(=O)CNC(=O)[C@H](CCCCN)NC(=O)[C@H](CC(N)=O)NC(=O)[C@H](Cc1ccccc1)NC(=O)[C@H](Cc1ccccc1)NC(=O)[C@H](Cc1ccccc1)NC(=O)[C@H](CC(=O)O)NC(=O)[C@H](CCC(=O)O)NC(=O)[C@H](C)NC(=O)[C@H](Cc1ccccc1)N(C)C(=O)[C@H](Cc1ccccc1)NC(=O)[C@H](C(C)C)N(C)C(=O)[C@H](CC(C)C)NC(=O)[C@H](CCCCN)NC(=O)[C@@H](N)CCC(N)=O)[C@@H](C)CC)[C@@H](C)CC)C(=O)N[C@H](C(=O)NCC(=O)NCC(=O)N[C@H](C(=O)N[C@H](C(=O)O)C(C)C)C(C)C)C(C)C
B4: F3-LF (peptide)
peptide: H-QK[NMeL]V[NMeF]FAEDFFFNKGAIIGL[Nle]VGGVV-OH
SMILES: CCCC[C@H](NC(=O)[C@H](CC(C)C)NC(=O)CNC(=O)[C@@H](NC(=O)[C@@H](NC(=O)[C@H](C)NC(=O)CNC(=O)[C@H](CCCCN)NC(=O)[C@H](CC(N)=O)NC(=O)[C@H](Cc1ccccc1)NC(=O)[C@H](Cc1ccccc1)NC(=O)[C@H](Cc1ccccc1)NC(=O)[C@H](CC(=O)O)NC(=O)[C@H](CCC(=O)O)NC(=O)[C@H](C)NC(=O)[C@H](Cc1ccccc1)NC(=O)[C@H](Cc1ccccc1)N(C)C(=O)[C@@H](NC(=O)[C@H](CC(C)C)N(C)C(=O)[C@H](CCCCN)NC(=O)[C@@H](N)CCC(N)=O)C(C)C)[C@@H](C)CC)[C@@H](C)CC)C(=O)N[C@H](C(=O)NCC(=O)NCC(=O)N[C@H](C(=O)N[C@H](C(=O)O)C(C)C)C(C)C)C(C)C
B5: Nle3-LF (peptide)
peptide: H-QK[NMeL]V[NMeF]FAED[Nle][Nle][Nle]NKGAIIGL[Nle]VGGVV-OH
SMILES: CCCC[C@H](NC(=O)[C@H](CC(=O)O)NC(=O)[C@H](CCC(=O)O)NC(=O)[C@H](C)NC(=O)[C@H](Cc1ccccc1)NC(=O)[C@H](Cc1ccccc1)N(C)C(=O)[C@@H](NC(=O)[C@H](CC(C)C)N(C)C(=O)[C@H](CCCCN)NC(=O)[C@@H](N)CCC(N)=O)C(C)C)C(=O)N[C@@H](CCCC)C(=O)N[C@@H](CCCC)C(=O)N[C@@H](CC(N)=O)C(=O)N[C@@H](CCCCN)C(=O)NCC(=O)N[C@@H](C)C(=O)N[C@H](C(=O)N[C@H](C(=O)NCC(=O)N[C@@H](CC(C)C)C(=O)N[C@@H](CCCC)C(=O)N[C@H](C(=O)NCC(=O)NCC(=O)N[C@H](C(=O)N[C@H](C(=O)O)C(C)C)C(C)C)C(C)C)[C@@H](C)CC)[C@@H](C)CC
B6: L3-VF (peptide)
peptide: H-QKL[NMeV]F[NMeF]AEDLLLNKGAIIGL[Nle]VGGVV-OH
SMILES: CCCC[C@H](NC(=O)[C@H](CC(C)C)NC(=O)CNC(=O)[C@@H](NC(=O)[C@@H](NC(=O)[C@H](C)NC(=O)CNC(=O)[C@H](CCCCN)NC(=O)[C@H](CC(N)=O)NC(=O)[C@H](CC(C)C)NC(=O)[C@H](CC(C)C)NC(=O)[C@H](CC(C)C)NC(=O)[C@H](CC(=O)O)NC(=O)[C@H](CCC(=O)O)NC(=O)[C@H](C)NC(=O)[C@H](Cc1ccccc1)N(C)C(=O)[C@H](Cc1ccccc1)NC(=O)[C@H](C(C)C)N(C)C(=O)[C@H](CC(C)C)NC(=O)[C@H](CCCCN)NC(=O)[C@@H](N)CCC(N)=O)[C@@H](C)CC)[C@@H](C)CC)C(=O)N[C@H](C(=O)NCC(=O)NCC(=O)N[C@H](C(=O)N[C@H](C(=O)O)C(C)C)C(C)C)C(C)C

Key:
[1] = biological target: islet amyloid polypeptide (IAPP) (human) (UniProt P10997)
[2] = biological target: Aβ42 (Homo sapiens (Human)) (UniProt P05067)

Chain of islet amyloid polypeptide (IAPP) (human) (P10997 34-70): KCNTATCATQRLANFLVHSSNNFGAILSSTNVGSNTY

Binder | IC50 of inhibitory effect on IAPP-mediated cell damage (MTT reduction, RIN5fm cells) [1] | IC50 of inhibitory effect on Aβ42-mediated cell damage (MTT reduction, PC12 cells) [2]
B1 | 133 nM | 
B2 | 65 nM | 367 nM
B3 | 78.5 nM | 1030 nM
B4 | 41.7 nM | 262 nM
B5 | 82.1 nM | 
B6 | 112 nM | 261 nM
